Sequences and labels used below:
B6: N-10 peptide (peptide)
peptide: QFNQYKTEAASRYNLTISDVSVSDVPFPFSAQSGA
notes: also called PSMGFR N-10; PSMGFR minus 10 amino acids from the N-terminus

In assay [1] the target is T1, N+20/C-27 peptide.
T1 peptide: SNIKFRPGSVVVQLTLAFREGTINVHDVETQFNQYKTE
Put plainly: ELISA, peptide on plate (FIG. 63). On the procedure: ELISA assays were performed to determine if, in addition to recognizing their immunizing peptide, they recognized PSMGFR, N-10 or C-10. In addition, they were tested for their ability to bind to N+20/C-27, N+9/C-9. We first did the ELISA assay on our set of reference antibodies, MNC2, MNE6, which we know are cancer-specific plus MNC3, which we know recognizes stem cells and progenitor cells (FIG. 63A-63B). None of the reference antibodies bound to the N+20/C-27 peptide. MNC2 and MNE6 cannot bind to PSMGFR peptides with 27, 10 or 9 C-terminal deletions, however, MNC3 binds to C-10 and to N+9/C-9 peptides.
Background: An ELISA detects its analyte on a solid surface through an enzyme-linked reagent.

Assay [2] concerns the target B6. In words: ELISA, peptide on plate (FIG. 2B-2C).
For assay [3], the target named is T2, C-10 peptide.
T2 construct: also called PSMGFR C-10; PSMGFR minus 10 amino acids from the C-terminus
T2 peptide: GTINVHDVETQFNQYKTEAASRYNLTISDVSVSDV
Put plainly: ELISA, peptide on plate (FIG. 64).

For assay [4], the target named is T3, N+9/C-9 peptide.
T3 peptide: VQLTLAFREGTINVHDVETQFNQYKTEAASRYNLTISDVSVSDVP
Put plainly: ELISA, peptide on plate (FIG. 64).

The target of assay [5] is T4, PSMGFR peptide.
T4 construct: also called MUC1* peptide
T4 peptide: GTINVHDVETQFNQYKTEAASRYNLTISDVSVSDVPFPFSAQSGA
In words: ELISA, peptide on plate (FIG. 2B). On the procedure: FIGS. 2A-2I show results of ELISA assays. MUC1* peptides PSMGFR, PSMGFR minus 10 amino acids from the N-terminus aka N-10, or PSMGFR minus 10 amino acids from the C-terminus, aka C-10 are immobilized on the plate and the following are assayed for binding: NME7-AB (FIG. 2A), MNC2 monoclonal antibody (FIG. 2B), MNE6 monoclonal antibody (FIG. 2C), or dimeric NME1 (FIG. 2D). […] MUC1* peptides PSMGFR minus 10 amino acids from the N-terminus aka N-10, or PSMGFR minus 10 amino acids from the C-terminus, aka C-10, are immobilized on the plate and the following are assayed for binding: MNC3 (FIG. 2E) and MNC8 (FIG. 2F).

Assay [6] concerns the target T5, MUC1* expressed on HCT-116 cells transfected with MUC1* (extra cellular domain is just the PSMGFR sequence) (Homo sapiens (Human), UniProt P15941 1110-1255).
T5 construct: In Western blot rows the same protein stood denatured in cell lysate; also called HCT-MUC1*; HCT-FLR
T5 sequence: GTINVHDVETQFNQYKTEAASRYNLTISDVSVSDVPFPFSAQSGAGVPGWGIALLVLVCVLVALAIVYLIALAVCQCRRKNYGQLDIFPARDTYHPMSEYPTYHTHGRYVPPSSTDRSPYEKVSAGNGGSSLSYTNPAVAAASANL
In words: flow cytometry, HCT-116 cells transfected with MUC1* (FIG. 35B). (In general: Flow cytometry measures light scatter and fluorescence of single cells or particles in a stream.)

In assay [7] the target is T2, C-10 peptide. In words: ELISA, peptide on plate (FIG. 201).
Assay [8] addresses T4, PSMGFR peptide. Put plainly: ELISA, peptide on plate (FIG. 201A). On the procedure:
(§1) FIG. 201A-201C show graphs of ELISA assays to determine the binding of another set of antibodies generated by immunizing animals with the PSMGFR peptide. […] F3, B12, B2, B7, B9, 8C7F3 and H11 all bound to the PSMGFR peptide and to the N-10 peptide.
(§2) This same ELISA assay was performed on the antibodies of the invention (FIGS. 64-66 and FIG. 201). Note that only 20A10 exactly matches the binding profile of MNC2 and MNE6. 25E6, 28F9 and 18G12 are all able to bind to the N-10 peptide. 18B4 is the only antibody raised against the PSMGFR peptide that requires the 10 most N-terminal amino acids of the peptide. The color of the bars for each antibody in the ELISA graph are color coded to match the deductive cognate sequence, or a portion thereof, of that antibody. In addition, another set of antibodies was assayed by ELISA (FIG. 201). Of this set, B12, B2, B7, B9, 8C7F3, and H11 bound to the PSMGFR peptide, bound to the N-10 peptide, but not to the C-10 peptide (FIG. 201). Although these antibodies were raised against the N+20/C-27 peptide, all but one, 45C11, still bind to the PSMGFR peptide, albeit at the N-terminal portion of PSMGFR.

For assay [9], the target named is B6. In words: ELISA, peptide on plate (FIG. 201B). On the procedure:
as §1, §2

The target of assay [10] is T4, PSMGFR peptide. Put plainly: peptide ELISA.
In assay [11] the target is B6. In words: peptide ELISA.
In assay [12] the target is T5, MUC1* expressed on HCT-116 cells …. Put plainly: denaturing Western blot of cell lysates, longer exposure (FIG. 72G, 72H, 72O, 72P). From the text: All these antibodies were raised against the PSMGFR peptide and bind to the PSMGFR peptide. […] FIG. 72A and FIG. 72I show 20A10. FIG. 72B and FIG. 72J show 25E6. FIG. 72C and FIG. 72K show 18B4. FIG. 72D and FIG. 72L show 18G12. FIG. 72E and FIG. 72M show 28F9. FIG. 72F and FIG. 72N show 3C2B1. FIG. 72G and FIG. 72O show 5C6F3. FIG. 72H and FIG. 72P show 5C6F3 wherein the blot has been exposed for a longer time period to render more visible the MUC1* specific bands.
(§3) Antibodies that were raised against the PSMGFR peptide were tested the same way in Western blots (FIG. 72A-72P). […] Antibodies that were raised against the N+20/C-27 peptide were tested the same way in Western blots (FIG. 73A-73J). […] Antibodies 1E4 and 45C11 may recognize a conformational epitope. Antibodies that were raised against the N+9/C-9 peptide were tested the same way in Western blots (FIG. 74A-74H). […] These antibodies may recognize a conformational epitope.
(Immunoblotting shows a protein as a band on a membrane.)

Assay [13] concerns the target T4, PSMGFR peptide. In words: peptide ELISA, told in tissue legend.
The target in assay [14] is B6. In words: peptide ELISA, told in tissue legend.
Assay [15] concerns the target T5, MUC1* expressed on HCT-116 cells …. Put plainly: denaturing Western blot of cell lysates (FIG. 72). On the procedure: Antibodies were tested to determine whether they recognize a linear or a conformational epitope. Only antibodies that recognize a linear epitope work in Western blots when using denaturing gels. […] The antibodies tested for comparison are MNC2 and MNE6, which were known to only recognize a conformational epitope, SDIX which is a polyclonal antibody raised against PSMGFR and VU4H5, which is a commercially available monoclonal antibody that recognizes the tandem repeats of full-length MUC1 (FIG. 71A-71D). […] The SDIX polyclonal antibody recognizes HCT-MUC1* but not full-length MUC1 and VU4H5 only recognizes full-length MUC1. These same antibodies were also tested for their ability to work in Western blots of two breast cancer cell lines 1500, aka Zr-75-1, and T47D cells and show the same binding pattern (FIG. 71E-71H).
as §3

In assay [16] the target is T4, PSMGFR peptide. In words: ELISA, peptide on plate (FIG. 65).
The target of assay [17] is T6, NME7AB (Homo sapiens (Human), UniProt Q9Y5B8 92-376).
T6 construct: NME7A in the text appears to be NME7AB; also called NM23-H7; NME7A
T6 sequence: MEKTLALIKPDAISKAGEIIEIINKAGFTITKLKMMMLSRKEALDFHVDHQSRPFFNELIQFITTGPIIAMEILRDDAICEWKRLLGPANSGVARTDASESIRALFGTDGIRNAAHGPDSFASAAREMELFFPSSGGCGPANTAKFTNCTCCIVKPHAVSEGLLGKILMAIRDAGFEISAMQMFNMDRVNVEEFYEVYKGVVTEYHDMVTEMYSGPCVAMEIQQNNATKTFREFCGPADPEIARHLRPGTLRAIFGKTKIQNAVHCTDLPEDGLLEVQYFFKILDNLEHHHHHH
Put plainly: ELISA, peptide on plate (FIG. 2A-2D).

For assay [18], the target named is T2, C-10 peptide. In words: ELISA, peptide on plate (FIG. 9).
The target in assay [19] is T4, PSMGFR peptide. Put plainly: ELISA, peptide on plate (FIG. 9).
Assay [20] deals with B6. Put plainly: ELISA, peptide on plate (FIG. 9).

B1: mouse monoclonal antibody MNC2 (antibody, V domains shown)
VH: EVQLEESGGGLVKPGGSLKLSCAASGFTFSGYAMSWVRQTPEKRLEWVATISSGGTYIYYPDSVKGRFTISRDNAKNTLYLQMSSLRSEDTAMYYCARLGGDNYYEYFDVWGAGTTVTVSS
VL: DIVITQSTASLGVSLGQRATISCRASKSVSTSGYSYMHWYQQRPGQPPKLLIYLASNLESGVPARFSGSGSGTDFTLNIHPVEEEDAATYYCQHSRELPFTFGGGTKLEIKR
notes: Mouse monoclonal raised against the PSMGFR peptide; also called Min-C2; MNC2-scFv (label in some tissue legends)
In the case of B1, the binding result is “no binding” in assay [1]; “binds” in assay [2]; “no binding” in [3]; “no binding” in assay [4]; “binds” in assay [5]; “binds” in assay [6].

B2: monoclonal antibody H11 (antibody, V domains shown)
VH: EVVLVESGGGLVEPGGSLKLSCVASGFAFSTFAMSWIRQTPEKRLEWVAAISNGGGYTYYPDTLKGRFTISRDNAKNTLYLQMSSLRSEDTAVYYCARRYYDLYFDLWGQGTSLIVSS
VL: DILMTQTPLSLPVSLGDQASISCRSSQNIVHSNGNTYLEWYLQKPGQSPKLLIYKVSNRFSGVPDRFSGSGSGTDFTLKISRVEAEDLGVYYCFQDSHVPLTFGAGTRLELK
notes: Raised against PSMGFR
As for B2, the binding result in assay [7] was “no binding”; in assay [8], “binds”; in assay [9], “binds”.

B3: monoclonal antibody 5C6F3 (antibody, V domains shown)
VH: EVMLVESGGGLVKPGGSLKLSCAASGFTFSTYAMSWVRQTPEKRLEWVAAISNGGGYTYYPDSLKGRFTISRDNAKNTLYLQMSSLRSEDTATYYCARRYYDHYFDYWGQGTALTVSS
VL: DVLMTQTPLSLPVSLGDQASISCRSSQTIVHSNGNTYLEWYLQKPGQSPKLLIYKVSNRFSGVPDRFSGSGSGTDFTLKISRVEAEDLGVYYCFQDSHVPLTFGAGTKLELK
notes: Raised against PSMGFR; also called MN5C6F3; anti-PSMGFR antibody 5C6F3
As to B3, the binding result in assay [10], in assay [11] and in assay [12] was “binds” in each case.

B4: monoclonal antibody 25E6 (antibody, V domains shown)
VH: EVQLVESGGDLVKPGGSLKLSCAASGFTFSSYGMSWVRQTPDKRLEWVATISNGGRHTFYPDSVKGRFTISRDNAKNTLYLQMSSLKSEDTAMYLCVRQTGTEGWFAYWGQGTLVTVSA
VL: not shown
notes: Raised against PSMGFR; also called MN25E6; anti-PSMGFR antibody 25E6
For the molecule B4, the binding result in [4], in [13], in assay [14] and in assay [15] was “binds” in each case.

B5: monoclonal antibody 45C11 (antibody, V domains shown)
VH: EVQLQQSGADLVKPGASVKLSCTASGFNIKDTFMHWVKQRPEQGLEWIGRIDPANGNTKYDPKFQGKATITADTSSNTAYLQLSSLTSEDTAVYYCAKPYGNYGYYYALDYWGQGTSVTVSS
VL: DVQITQSPSYLAASPGETITINCRASKSISKYLAWYQEKPGKTNKLLIYSGSTLQSGIPSRFSGSGSGTDFTLTISSLEPEDFAMYYCQQHNEFPWTFGGGTKLEIK
notes: Raised against the N+20/C-27 peptide; also called N+20/C-27 antibody 45C11
Consider B5, for which the binding result in assay [11] and in [16] was “no binding” each time.

As to B6, the binding result in assay [17] is given as “binds”.

B7: humanized MNC3 scFv-Fc (Fc fusion)
VH: QVQLVQSGAEVKKPGASVKVSCKASGYTFTDYAMNWVRQAPGQGLEWMGVISTFSGNTNFNQKFKGRVTMTTDTSTSTAYMELRSLRSDDTAVYYCARSDYYGPYFDYWGQGTTLTVSS
VL: DIVMTQTPLSLSVTPGQPASISCRSSQTIVHSNGNTYLEWYLQKPGQSPQLLIYKVSNRFSGVPDRFSGSGSGTDFTLKISRVEAEDVGVYYCFQGSHVPFTFGGGTKVEIKRT
For B7, the binding result in [18], in assay [19] and in assay [20] was “binds” throughout.

For the origin of these results see patent US20240390418A1 (MINERVA BIOTECHNOLOGIES, published 2024).
